Experiments:
EGFR on A431 cells [1] = target: T1, EGFR on A431 cells (human, UniProt P00533 25-1210); assay: FACS competition on A431 cells: unlabelled antibody against biotinylated cetuximab (0.5 µg/mL), streptavidin-RPE detection; Trial 3
T1 construct: whole, on cells; also called epidermal growth factor receptor; ErbB-1
Procedure: (§1) A431 cells were grown to 2×10⁵ cells per well of V-bottom 96-well plates. Cells were washed with FACS staining buffer (FSB). […] The plates were then incubated on ice for 1 hour, and then washed twice with FSB. […] Cells were washed two times with FSB, and stained cells were resuspended with 200 μL of fixing buffer (1% paraformaldehyde). Samples were read using a flow cytometer.

EGFR on A431 cells [2] = target: T1, EGFR on A431 cells; assay: FACS competition on A431 cells: unlabelled antibody against biotinylated cetuximab (0.5 µg/mL), streptavidin-RPE detection; Trial 1
Procedure: as §1

EGFR on A431 cells [3] = target: T1, EGFR on A431 cells; assay: FACS competition on A431 cells: unlabelled antibody against biotinylated cetuximab (0.5 µg/mL), streptavidin-RPE detection; column Average of Trials 1-3, column SD prints 0.4
Procedure: as §1

EGFR on A431 cells [4] = target: T1, EGFR on A431 cells; assay: FACS competition on A431 cells: unlabelled antibody against biotinylated cetuximab (0.5 µg/mL), streptavidin-RPE detection; Trial 2
Procedure: as §1

EGFR on A431 cells [5] = target: T1, EGFR on A431 cells; assay: FACS competition on A431 cells against biotinylated cetuximab; panel FACS Competition (3)
Procedure: as §1

EGFR on A431 cells [6] = target: T1, EGFR on A431 cells; assay: FACS competition on A431 cells against biotinylated cetuximab; panel FACS Competition (2)
Procedure: as §1

- IC50 (EGFR on A431 cells [1]): 2.62 µg/mL
- IC50 (EGFR on A431 cells [2]): 1.71 µg/mL
- IC50 (EGFR on A431 cells [3]): 1.79 µg/mL
- IC50 (EGFR on A431 cells [4]): 1.06 µg/mL
- IC50 (read off the curve) (EGFR on A431 cells [5]): ~3 µg/mL
- IC50 (read off the curve) (EGFR on A431 cells [6]): ~1 µg/mL
B1: hu225 (antibody, V domains shown)
VH: EVQLVESGGGLVQPGGSLRLSCAASGFSLTNYGVHWVRQAPGKGLEWLGVIWSGGNTDYNTPFTSRLTINKDNSKNTVYLQMNSLRAEDTAVYYCARALTYYDYEFAYWGQGTLVTVSS
VL: DILLTQSPGTLSLSPGERATLSCRASQSIGTNIHWYQQKPGQAPRLLIKYASESISGIPDRFSGSGSGTDFTLTISRLEPEDFAVYYCQQNNNWPTTFGQGTKLEIKR
notes: also called humanized version of MAb225; humanized cetuximab
